Source: paper PMC4869865 (Structure (London, England : 1993), 2010)
Read-outs that look alike come from different tables or passages of the source.

Legend:
Test in all cases: native MS
[1] = molecular target: the molecule itself
[2] = molecular target: δδ′ subcomplex (E. coli, UniProt P28630 1-343; P28631 1-334)
[3] = molecular target: the molecule itself; remark: listed apart in the source

B1: γ subunit (DnaX) of the E. coli clamp loader (natural protein, UniProt P06710-2 1-431, looked up)
chain: MSYQVLARKWRPQTFADVVGQEHVLTALANGLSLGRIHHAYLFSGTRGVGKTSIARLLAKGLNCETGITATPCGVCDNCREIEQGRFVDLIEIDAASRTKVEDTRDLLDNVQYAPARGRFKVYLIDEVHMLSRHSFNALLKTLEEPPEHVKFLLATTDPQKLPVTILSRCLQFHLKALDVEQIRHQLEHILNEEHIAHEPRALQLLARAAEGSLRDALSLTDQAIASGDGQVSTQAVSAMLGTLDDDQALSLVEAMVEANGERVMALINEAAARGIEWEALLVEMLGLLHRIAMVQLSPAALGNDMAAIELRMRELARTIPPTDIQLYYQTLLIGRKELPYAPDRRMGVEMTLLRALAFHPRMPLPEPEVPRQSFAPVAPTAVMTPTQVPPQPQSAPQQAPTVPLPETTSQVLAARQQLQRVQGATKAKKE
[1]
  stoichiometry N: 4
[2]
  binding result: binds
[3]
  stoichiometry N: 3
